Changes are numbered by the printed parent chain.
T1: Alpha-fetoprotein (Homo sapiens, UniProt P02771 P02771:19-609)
T1 sequence: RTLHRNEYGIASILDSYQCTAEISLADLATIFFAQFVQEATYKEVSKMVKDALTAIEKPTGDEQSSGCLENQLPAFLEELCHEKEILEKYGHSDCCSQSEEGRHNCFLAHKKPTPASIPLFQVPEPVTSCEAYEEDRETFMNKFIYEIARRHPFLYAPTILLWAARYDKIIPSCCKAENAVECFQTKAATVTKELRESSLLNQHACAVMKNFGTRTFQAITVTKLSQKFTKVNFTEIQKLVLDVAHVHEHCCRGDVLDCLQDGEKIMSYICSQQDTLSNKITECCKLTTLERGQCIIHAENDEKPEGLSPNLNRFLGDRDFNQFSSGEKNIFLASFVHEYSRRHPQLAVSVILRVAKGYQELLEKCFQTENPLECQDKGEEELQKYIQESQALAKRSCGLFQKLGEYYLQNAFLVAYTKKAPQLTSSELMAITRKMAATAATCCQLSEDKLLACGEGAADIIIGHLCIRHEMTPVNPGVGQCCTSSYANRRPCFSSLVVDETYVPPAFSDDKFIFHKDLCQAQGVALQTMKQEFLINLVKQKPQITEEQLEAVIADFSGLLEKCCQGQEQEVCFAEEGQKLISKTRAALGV

T2: C-reactive protein (CRP) (Homo sapiens, UniProt P02741 P02741:19-224)
T2 sequence: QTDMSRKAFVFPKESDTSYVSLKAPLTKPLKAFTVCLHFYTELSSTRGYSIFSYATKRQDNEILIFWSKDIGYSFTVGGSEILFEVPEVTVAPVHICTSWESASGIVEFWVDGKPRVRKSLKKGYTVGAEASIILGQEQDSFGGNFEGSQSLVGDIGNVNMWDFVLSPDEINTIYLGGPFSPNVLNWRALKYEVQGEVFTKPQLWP

B1: TNI-N3 (= TNI-MEDI2) (ssDNA)
DNA: CTGTCGTTAGTGAAGGTTGGCGCAGGAACCTGAACGTTCGACGGGGTCGGCACCTGTAACGCCATATCACAGACG
B2: TNI-B4 (ssDNA)
DNA: CTGTCGTTAGTGAAGGTTGCCCCGGGAACCGAAACTTGCGACCTGTCGTCACCTTGTAACGCCATATCACAGACG
B3: TNI-B3 (ssDNA)
DNA: CTGTCGTTAGTGAAGGTTGGCGGCGGACCGGAACTAGCGGCAGTCACAGTCGACCCCAACGCCATATCACAGACG
B4: TNI-CRP4 (ssDNA)
DNA: TAGGTGCTCGACGCTGACGGGCGACACCGAGGGGGCTGGGGCGCGGGTACTCAGTCGCAGGTCATG
B5: TNI-CRP1 (ssDNA)
DNA: TAGGTGCTCGACGCTGACCCAGACCCACCAATATATGCCCCGCGGTGTACTCAGTCGCAGGTCATG
B6: TNI-CRP2 (ssDNA)
DNA: TAGGTGCTCGACGCTGACCCAGGACGGCACCTTAACCGCGCGTGGGCTACTCAGTCGCAGGTCATG
B7: TNI-CRP3 (ssDNA)
DNA: TAGGTGCTCGACGCTGACCCAGGGGACACCTATCAATCGTCGTGCGGTACTCAGTCGCAGGTCATG
B8: TNI-B5 (ssDNA)
DNA: CTGTCGTTAGTGAAGGTTGGCGGCGGACCGGAACGAACGGCAGCAGCGACACCGGTAACGCCATATCACAGACG
B9: TNI-B2 (= TNI-N2) (ssDNA)
DNA: CTGTCGTTAGTGAAGGTTGCAGGCACGCTGCGATATGTCCAGTTGACCCGGTTTGCCAACGCCATATCACAGACG
B10: TNI-2 (ssDNA)
DNA: CTGTCGTTAGTGAAGGTTGGTAACAACGACCGGGACTAACGGCAGCAGCGACACCGGTAACGCCATATCACAGACG
B11: IL-10-6 (ssDNA)
DNA: TAGGTGCTCGACGCTGACCGGGCATTGACACCTTATCGTGGGGTGGGGACTCAGTCGCAGGTCATG
B12: TNI-1 (= TNI-B1, TNI-N1, TNI-MEDI1) (ssDNA)
DNA: B10 DNA with T21C
B13: TNI-3 (ssDNA)
DNA: B3 DNA with T35G, A46G
B14: IL-10-3 (ssDNA)
DNA: TAGGTGCTCGACGCTGACCCACGAAAGACACCGCAGTCCCTCCACGCTACTCAGTCGCAGGTCATG
B15: TNI-4 (ssDNA)
DNA: CTGTCGTTAGTGAAGGTTGCCAAGCGAACTGCGACAGGGGATCCAGGAGACGGCCCCAACGCCATATCACAGACG
B16: IL-10-2 (ssDNA)
DNA: TAGGTGCTCGACGCTGACCCAATCCTGACACACCGTATTAAGCCGCGTACTCAGTCGCAGGTCATG
B17: IL-10-4 (ssDNA)
DNA: TAGGTGCTCGACGCTGACCCCCCAGTCACACCTTATGACCGTCCCGCCACTCAGTCGCAGGTCATG
B18: IL-10-1 (ssDNA)
DNA: TAGGTGCTCGACGCTGACCCAGGGCTACACCTTATCCATTCGCGCGGTACTCAGTCGCAGGTCATG
B19: IL-10-5 (ssDNA)
DNA: TAGGTGCTCGACGCTGACCCAGGCACACCTATCCAACTGTCACCGGCCACTCAGTCGCAGGTCATG

These binders were tested against T3, Troponin I (TnI) (Homo sapiens, UniProt P19429 P19429:2-210) (assay: ELONA; values only in figure). Conditions: tags: coated on ELISA plate; label: hybridized biotin-labeled primer.
T3 sequence (P19429 2-210, one chain of several): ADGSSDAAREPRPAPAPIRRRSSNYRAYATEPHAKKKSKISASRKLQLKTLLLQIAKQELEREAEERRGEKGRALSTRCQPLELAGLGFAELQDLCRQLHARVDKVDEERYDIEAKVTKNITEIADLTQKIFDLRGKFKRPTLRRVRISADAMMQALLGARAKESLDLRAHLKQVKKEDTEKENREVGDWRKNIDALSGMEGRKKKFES

Binder	binding result
B1	binds
B2	binds
B3	binds
B4	binds
B5	binds
B6	binds
B7	binds
B8	binds
B9	binds

Each binder was assayed against T3, Troponin I (TnI) (assay: ELONA; very similar affinity to the other TNI aptamers). Conditions: tags: coated on ELISA plate; label: hybridized biotin-labeled primer.

Binder	binding result
B10	binds

These binders were tested against Serum albumin (Homo sapiens, UniProt P02768 P02768:25-609) (assay: ELONA; specificity control). Conditions: label: hybridized biotin-labeled primer.
Sequence of Serum albumin (P02768 25-609, one chain of several): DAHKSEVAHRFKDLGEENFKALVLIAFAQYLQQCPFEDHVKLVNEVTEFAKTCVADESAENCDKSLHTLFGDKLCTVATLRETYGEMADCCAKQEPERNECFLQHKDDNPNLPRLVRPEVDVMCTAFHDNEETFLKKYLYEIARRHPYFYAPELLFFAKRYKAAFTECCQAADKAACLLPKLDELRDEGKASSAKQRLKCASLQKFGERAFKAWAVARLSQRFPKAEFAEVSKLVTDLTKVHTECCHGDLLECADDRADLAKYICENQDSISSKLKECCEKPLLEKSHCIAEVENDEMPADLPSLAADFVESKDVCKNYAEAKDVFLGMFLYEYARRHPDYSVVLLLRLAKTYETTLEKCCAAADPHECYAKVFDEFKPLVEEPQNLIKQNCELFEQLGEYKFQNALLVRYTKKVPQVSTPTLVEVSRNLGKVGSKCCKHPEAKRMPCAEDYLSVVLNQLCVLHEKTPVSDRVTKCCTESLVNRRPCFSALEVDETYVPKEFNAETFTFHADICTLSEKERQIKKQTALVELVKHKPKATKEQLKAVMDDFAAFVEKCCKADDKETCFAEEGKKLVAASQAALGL

Binder	binding result
B11	no binding
B12	no binding
B13	no binding
B14	no binding
B15	no binding

Each binder was assayed against T1, Alpha-fetoprotein (assay: ELONA; specificity control). Conditions: label: hybridized biotin-labeled primer.

Binder	binding result
B12	no binding
B13	no binding
B15	no binding

The binders below were run against T2, C-reactive protein (CRP) (assay: ELONA; specificity control). Conditions: chain copies: 5; label: hybridized biotin-labeled primer.

Binder	binding result
B11	no binding
B12	no binding
B13	no binding
B14	no binding
B15	no binding

These binders were tested against T3, Troponin I (TnI) (assay: ELONA; specificity control). Conditions: tags: coated on ELISA plate; label: hybridized biotin-labeled primer.

Binder	binding result
B11	no binding
B14	no binding

Each binder was assayed against Interleukin-10 (IL-10) (Homo sapiens, UniProt P22301 P22301:19-178) (assay: ELONA; only IL-10-3 and IL-10-6 of 6 showed potential binding). Conditions: tags: coated on ELISA plate; chain copies: 2; label: hybridized biotin-labeled primer.
Sequence of Interleukin-10 (IL-10) (P22301 19-178, one chain of several): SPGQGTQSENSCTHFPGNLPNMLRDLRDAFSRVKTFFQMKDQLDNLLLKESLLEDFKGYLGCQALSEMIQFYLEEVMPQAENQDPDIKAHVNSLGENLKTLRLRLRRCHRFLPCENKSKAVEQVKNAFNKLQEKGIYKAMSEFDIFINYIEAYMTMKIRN

Binder	binding result
B16	no binding
B17	no binding
B18	no binding
B19	no binding

Reference: patent US20140243208, “COMPOSITIONS AND METHODS FOR SELECTING APTAMERS” (Mediomics, LLC, published 2014)
